Source: doi:10.1101/433532

Molecular target: recombinant CSN^ΔCSNAP complex (eight subunits, WT CSN5) (UniProt Q13098)
Experiment: native MS

stoichiometry N: 1
Substance: CSNAP, recombinant subunit co-expressed in the CSN complex (natural protein)
